The target in assay [1] is T1, human PD-1 expressed on CHO-S cells (human, UniProt Q15116 25-288).
T1 construct: CHO-S cells transfected with pCMV3-C-FLAG vector (Sino) holding human PD-1 cDNA; also called cell surface human PD-1; hPD-1
The experiment in a line: cell-based ELISA on CHO-S cells expressing human PD-1. On the procedure:
(§1) To summarize the ELISA analysis, 10,000 CHO-S cells expressing either human PD-1 or mouse PD-1 were coated in a collagen-coated 96-well plate (Thermo scientific) overnight in an incubator at 37° C. The coated cells were fixed with 8% paraformaldehyde at room temperature for 15 minutes.
(§2) After washing, a secondary antibody was added and incubated overnight at 4° C. […] After washing, TMB substrate (abcam) was added, and the color reaction was stopped with STOP solution (abcam). Absorbance at 450/650 nm was measured using a microplate reader (ThermoFisher).

Assay [2] deals with T1, human PD-1 expressed on CHO-S cells. The assay can be described thus: cell-based ELISA on fixed CHO-S cells expressing human PD-1. In general terms: In an ELISA, binding on a coated surface is turned into a signal by an enzyme label.
Assay [3] deals with T2, human PD-1 protein (human, UniProt Q15116 25-167, limits assumed).
T2 construct: also called human PD-1 antigen
The assay can be described thus: SPR, Biacore 8K, antibody captured on Protein A chip, human PD-1 as analyte. A general note: Surface plasmon resonance follows binding to a sensor surface in real time, without labels.

Assay [4] addresses T2, human PD-1 protein. The assay can be described thus: SPR, Biacore 8K, antibody captured on Protein A chip, human PD-1 as analyte, pH 7.4.
Assay [5] concerns the target T2, human PD-1 protein. The assay can be described thus: SPR, Biacore 8K, antibody captured by anti-human IgG on CM5, human PD-1 as analyte. The procedure: Anti-human IgG antibody was immobilized on a CM5 chip (Cytiva) via amine coupling. […] Human PD-1 and running buffer at a concentration of 0-100 nM (0, 6.25, 12.5, 25, 50, 100 nM) were flowed onto the sensor chip at a flow rate of 30 μl/min for an association phase of 120 s, which was followed by a dissociation phase of 900 s. The chip was regenerated with glycine at pH 1.5 after each experiment. Association and dissociation curves were drawn using Cytiva evaluation software, and kinetics and affinity values were determined.

In assay [6] the target is T3, mouse PD-1 expressed on CHO-S cells (mouse, UniProt Q02242 25-288).
T3 construct: whole, on cells; also called cell surface mouse PD-1; mPD-1
T3 sequence (looked up): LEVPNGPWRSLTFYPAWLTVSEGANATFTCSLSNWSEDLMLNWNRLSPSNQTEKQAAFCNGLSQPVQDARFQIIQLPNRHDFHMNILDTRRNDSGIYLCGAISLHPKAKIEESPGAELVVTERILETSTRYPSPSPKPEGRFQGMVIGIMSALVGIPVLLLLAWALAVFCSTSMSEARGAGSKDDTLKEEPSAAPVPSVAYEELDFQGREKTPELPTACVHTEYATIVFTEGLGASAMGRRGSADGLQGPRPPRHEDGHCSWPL
The assay can be described thus: cell-based ELISA on CHO-S cells expressing mouse PD-1. On the procedure:
as §1, §2

The target of assay [7] is human BTLA protein (human, UniProt Q7Z6A9 31-157, limits assumed). The experiment in a line: protein-based ELISA, coated human BTLA, hybridoma supernatant. The procedure: (§3) Human PD-1, CD28, CTLA-4, ICOS, and BTLA proteins were coated in 96-well plates (Nunc) overnight at 4° C. […] After washing, a secondary antibody was added and incubated at 37° C. for 2 hours. […] After washing, TMB substrate (abcam) was added, and the color reaction was stopped with STOP solution (abcam). Absorbance at 450/650 nm was measured using a microplate reader (ThermoFisher).

In assay [8] the target is human CD28 protein (human, UniProt P10747 19-152). The experiment in a line: protein-based ELISA, coated human CD28, hybridoma supernatant. The procedure: as §3
Assay [9] addresses T4, human ICOS protein (human, UniProt Q9Y6W8 21-140).
T4 sequence (looked up): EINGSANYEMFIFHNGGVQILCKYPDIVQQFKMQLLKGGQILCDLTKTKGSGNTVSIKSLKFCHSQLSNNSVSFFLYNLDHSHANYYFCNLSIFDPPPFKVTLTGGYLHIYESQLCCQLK
The assay can be described thus: protein-based ELISA, coated human ICOS, hybridoma supernatant. On the procedure: as §3

Assay [10] concerns the target human CTLA-4 protein (human, UniProt P16410 36-161). The assay can be described thus: protein-based ELISA, coated human CTLA-4, hybridoma supernatant. On the procedure: as §3
Assay [11] addresses T1, human PD-1 expressed on CHO-S cells. The experiment in a line: cell-based ELISA on CHO-S cells expressing human PD-1; EC50 against Keytruda and Opdivo. The procedure:
as §1, §2

The target is the same in assay [12]. The assay can be described thus: cell-based ELISA on fixed CHO-S cells expressing human PD-1, hybridoma supernatant. The procedure:
(§4) To summarize the ELISA assay, 10,000 CHO-S cells expressing human or mouse PD-1 were coated in collagen-coated 96-well plates (ThermoFisher) overnight at 37° C. The coated cells were fixed with 8% paraformaldehyde at room temperature for 15 minutes. […] After washing, secondary antibody was added and incubated overnight at 4° C. […] After washing, TMB substrate (abcam) was added, and the color reaction was stopped with STOP solution (abcam). Absorbance at 450/650 nm was measured using a microplate reader (ThermoFisher).

Assay [13] addresses T3, mouse PD-1 expressed on CHO-S cells. The assay can be described thus: cell-based ELISA on fixed CHO-S cells expressing mouse PD-1, hybridoma supernatant. The procedure: as §4
In assay [14] the target is T5, human PD-1 with P130 mutated to alanine (human, UniProt Q15116 25-288, limits assumed).
T5 construct: Alanine scanning mutant, expressed and analysed by high-throughput flow cytometry; the construct is not described further
The assay can be described thus: alanine scanning, high-throughput flow cytometry. From the text: (§5) Selected amino acid residues of PD-1 were mutated to alanine using PCR mutagenesis.
On the technique in general: In flow cytometry, cells or beads pass a laser one at a time.

In assay [15] the target is T6, human PD-1 with L128 mutated to alanine (human, UniProt Q15116 25-288, limits assumed).
T6 construct: Alanine scanning mutant, expressed and analysed by high-throughput flow cytometry; the construct is not described further
The experiment in a line: alanine scanning, high-throughput flow cytometry.
Excerpt: as §5

The target of assay [16] is T7, human PD-1 with I126 mutated to alanine (human, UniProt Q15116 25-288, limits assumed).
T7 construct: Alanine scanning mutant, expressed and analysed by high-throughput flow cytometry; the construct is not described further
The assay can be described thus: alanine scanning, high-throughput flow cytometry.
Excerpt: as §5

T2 sequence (Q15116 25-167 limits assumed): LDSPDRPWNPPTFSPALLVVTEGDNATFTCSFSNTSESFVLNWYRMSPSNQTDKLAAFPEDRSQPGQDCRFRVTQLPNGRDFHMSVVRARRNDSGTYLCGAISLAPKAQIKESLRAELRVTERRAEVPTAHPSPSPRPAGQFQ
T1 sequence (Q15116 25-288 limits assumed): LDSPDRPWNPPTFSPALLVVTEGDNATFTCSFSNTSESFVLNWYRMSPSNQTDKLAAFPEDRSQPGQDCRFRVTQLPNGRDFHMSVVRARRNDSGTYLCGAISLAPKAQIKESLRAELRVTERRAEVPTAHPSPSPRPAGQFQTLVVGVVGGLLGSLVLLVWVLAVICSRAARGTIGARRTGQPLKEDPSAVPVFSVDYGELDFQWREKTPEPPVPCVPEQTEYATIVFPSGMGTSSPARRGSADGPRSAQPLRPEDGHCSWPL
T5 sequence (Q15116 other isoform, or with tags, fused parts or gaps limits assumed, change not shown): as the sequence (Q15116 25-288 limits assumed) above, with P106A counted along it
T7 sequence (Q15116 other isoform, or with tags, fused parts or gaps limits assumed, change not shown): as the sequence (Q15116 25-288 limits assumed) above, with I102A counted along it
T6 sequence (Q15116 other isoform, or with tags, fused parts or gaps limits assumed, change not shown): as the sequence (Q15116 25-288 limits assumed) above, with L104A counted along it
Chain of human CTLA-4 protein (P16410 36-161 limits assumed): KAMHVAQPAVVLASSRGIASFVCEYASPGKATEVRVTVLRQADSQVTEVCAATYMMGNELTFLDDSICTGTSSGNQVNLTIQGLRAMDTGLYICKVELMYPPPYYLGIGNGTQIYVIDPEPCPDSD

Keytruda (antibody) yielded an EC50 in [1] of 0.154 nM. Besides, the EC50 (read off the curve) in assay [2] worked out at 0.05 µg/mL. In addition, the dissociation constant (Kd) in assay [3] was 7.06 nM; in [4], 6.6 nM; in assay [5], 6.33 nM.

B1: hybridoma 1G1 antibody (antibody, V domains shown)
VH: EVQLQQSGAELVKPGASVKLSCKASGYTFTGYWMHWVKQRPGQGLEWIGMIHPNSDTTTYNEKFKNRATLTVDKSSGTAYMQLSSLTSEDSAVYYCTGTDQAAWFAFWGQGTLVTVSA
VL: DIVLTQTPLSLPVSLGDQASISCRSSQNIVHSNGDTYLEWYLQKPGQSPKLLIYKVSKRFSGVPDRFSGSGSGTDFTLKISRVEAEDLGVYYCFQGSHVPWTFGGGTKLEIK
notes: Mouse antibody from the hybridoma, used as culture supernatant or Protein G purified; IgG1 reverse primer used for VH); also called 1G1 hybridoma antibody; monoclonal cell (hybridoma) 1G1 antibody
Turning to B1, the figures for the EC50 in [1] and in [6] were 0.0281 nM and 0.0317 nM, respectively. For the same molecule, the binding result in [7], in assay [8], in assay [9] and in assay [10] was “no binding” each time. In addition, in assay [11], the “fold improved binding activity compared to Keytruda and Opdivo” value is approximately 5 fold. In addition, the “EC50 (read off the curve)” value in assay [12] and in assay [13] was approximately 0.01 µg/mL each time.

B2: chimeric 1G1 antibody (antibody, human IgG4 S228P, kappa, V domains shown)
VH: B1 VH
VL: DIVLTQTPLSLPVSLGDQASISCRSSQNIVHSNGDTYLEWYLQKPGQSPKLLIYKVSKRFSGVPDRFSGSGSGTDFTLKISRVEAEDLGVYYCFQGSHVPWTFGGGTKLEIKR
notes: signal peptide not part of the entries; also called 1G1 chimeric; 1G1-chimeric
Take B2: in assay [14], the “binding activity relative to the wild-type antigen” value was not above 50%. Further, the “binding activity relative to the wild-type antigen” value in assay [15] is not above 50%. Also, the “binding activity relative to the wild-type antigen” value in [16] was not above 50%. In assay [5], binding was put at a Kd of 3.35 nM, the koff amounted to 0.000749 s⁻¹ and the kon was 223000 M⁻¹ s⁻¹.

For orientation: EC50 means the concentration that produces a half-maximal response. Low values mean a more potent agent, high ones a less potent agent. The EC50 (read off the curve) is the concentration that produces a half-maximal response. A low value points to higher potency in that assay. One may read the Kd as the free concentration of one partner at which half of the binding sites on the other are occupied at equilibrium, for simple one-to-one binding. Lower therefore signals higher affinity. One may read the koff as the rate constant with which the complex falls apart. Higher therefore signals fast dissociation. Broadly, the kon is the rate constant with which the complex forms. Read a low kon as slower complex formation.

For the origin of these results see patent US20240034796A1 (GENUV, published 2024).
